Test results from FireProtDB (doi:10.1021/bi0118052).
“And” between values parts separate entries of the source, which are not always exact repeats. Identical values can stand only once.

B1: Protein S100-B, P04271 (parent)
chain: MSELEKAMVALIDVFHQYSGREGDKHKLKKSELKELINNELSHFLEEIKEQEVVDKVMETLDNDGDGECDFQEFMAFVAMVTTACHEFFEHE

Variants of: B1
Conditions: Homo sapiens; pH 7.2; 25 °C; GdnHCl; CD; MOPS 10 mM; KCl 50 mM; reversible: yes; structure 1UWO; whole UniProt chain shown

Variant	denaturant m value	denaturant midpoint (higher = more stable)	unfolding free energy [kcal/mol]	ddG of mutation (higher = less stable)
MSELEKAMVALADVFHQYSGREGDKHKLKKSELKELINNELSHFLEEIKEQEVVDKVMETLDNDGDGECDFQEFMAFVAMVTTACHEFFEHE [I12A]	2.75 kcal/mol/M and 1.43 kcal/mol/M	2.3 M and 4.2 M	13.2	–
MSEAEKAMVALADVFHQYSGREGDKHKLKKSELKELINNELSHFLEEIKEQEVVDKVMETLDNDGDGECDFQEFMAFVAMVTTACHEFFEHE [L4A I12A]	2.84 kcal/mol/M and 1.77 kcal/mol/M	2.1 M and 3.3 M	12.2	–
MSEAEKAMVALIDVFHQYSGREGDKHKLKKSELKELINNELSHFLEEIKEQEVVDKVMETLDNDGDGECDFQEFMAFVAMVTTACHEFFEHE [L4A]	3.49 kcal/mol/M and 1.58 kcal/mol/M	2.7 M and 3.7 M	16.1	–
MSESEKAMVALIDVFHQYSGREGDKHKLKKSELKELINNELSHFLEEIKEQEVVDKVMETLDNDGDGECDFQEFMAFVAMVTTACHEFFEHE [L4S]	3.3 kcal/mol/M and 2.29 kcal/mol/M	2.4 M and 3.2 M	14.5	–
MSEAEKAMVALIDVAHQYSGREGDKHKLKKSELKELINNELSHFLEEIKEQEVVDKVMETLDNDGDGECDFQEFMAFVAMVTTACHEFFEHE [L4A F15A]	1.67 kcal/mol/M and 0.81 kcal/mol/M	1.3 M and 1.7 M	8.39	8.94 kcal/mol and 5.16 kcal/mol
MSELEKAAVALIDVFHQYSGREGDKHKLKKSELKELINNELSHFLEEIKEQEVVDKVMETLDNDGDGECDFQEFMAFVAMVTTACHEFFEHE [M8A]	1.36 kcal/mol/M	3.6 M	–	0.65 kcal/mol
MSELEKAMVALIDVAHQYSGREGDKHKLKKSELKELINNELSHFLEEIKEQEVVDKVMETLDNDGDGECDFQEFMAFVAMVTTACHEFFEHE [F15A]	1.94 kcal/mol/M and 1.08 kcal/mol/M	1.8 M and 2.3 M	9.78	7.53 kcal/mol and 3.42 kcal/mol
